Laboratory results published in PMC4434323.

How the values were obtained:
[1] = target: T1, nhr-66 (T09A12.4) (Caenorhabditis elegans) (UniProt H2KYJ8)
T1 sequence: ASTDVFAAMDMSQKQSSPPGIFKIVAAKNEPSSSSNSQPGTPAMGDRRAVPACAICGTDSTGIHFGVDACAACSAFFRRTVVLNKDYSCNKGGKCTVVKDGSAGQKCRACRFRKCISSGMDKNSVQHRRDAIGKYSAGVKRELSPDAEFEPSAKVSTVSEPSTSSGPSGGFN

[2] = target: T2, nhr-3 (H01A20.1) (Caenorhabditis elegans) (UniProt Q9XTJ4)
T2 sequence: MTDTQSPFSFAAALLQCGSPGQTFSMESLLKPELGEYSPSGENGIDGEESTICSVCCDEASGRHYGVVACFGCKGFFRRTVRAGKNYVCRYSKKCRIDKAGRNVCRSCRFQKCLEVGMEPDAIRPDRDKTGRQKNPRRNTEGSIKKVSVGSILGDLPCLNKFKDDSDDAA

[3] = target: nhr-34 (F58G6.5) (Caenorhabditis elegans) (UniProt Q21006)
[4] = target: T3, daf-12 (F11A1.3) (Caenorhabditis elegans) (UniProt G5EFF5)
T3 sequence: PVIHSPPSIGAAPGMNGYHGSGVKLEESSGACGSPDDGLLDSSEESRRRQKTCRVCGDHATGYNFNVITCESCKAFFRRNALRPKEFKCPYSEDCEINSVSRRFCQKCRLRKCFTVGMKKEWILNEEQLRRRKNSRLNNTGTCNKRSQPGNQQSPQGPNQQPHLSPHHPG

[5] = target: T4, atf-5 (T04C10.4) (Caenorhabditis elegans) (UniProt Q22156)
T4 sequence: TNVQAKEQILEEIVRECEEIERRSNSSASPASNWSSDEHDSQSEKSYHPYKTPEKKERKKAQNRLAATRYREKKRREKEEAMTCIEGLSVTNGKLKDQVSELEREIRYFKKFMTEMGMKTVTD

[6] = target: atf-7 (C07G2.2) (Caenorhabditis elegans) (UniProt Q86MD3)
[7] = target: T5, nhr-1 (R09G11.2) (Caenorhabditis elegans) (UniProt Q21878)
T5 sequence: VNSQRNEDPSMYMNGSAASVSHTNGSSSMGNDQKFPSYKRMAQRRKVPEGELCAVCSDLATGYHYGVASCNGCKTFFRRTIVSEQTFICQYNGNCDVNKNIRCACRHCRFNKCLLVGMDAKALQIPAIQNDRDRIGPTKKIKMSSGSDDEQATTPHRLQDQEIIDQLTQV

[8] = target: T6, nhr-204 (R02C2.4) (Caenorhabditis elegans) (UniProt O44543)
T6 sequence: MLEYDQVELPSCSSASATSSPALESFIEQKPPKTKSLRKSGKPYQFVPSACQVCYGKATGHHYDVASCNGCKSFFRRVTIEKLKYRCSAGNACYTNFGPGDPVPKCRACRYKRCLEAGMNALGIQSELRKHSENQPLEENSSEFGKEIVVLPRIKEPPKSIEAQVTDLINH

[9] = target: T7, atf-6 (F45E6.2) (Caenorhabditis elegans) (UniProt Q20435)
T7 sequence: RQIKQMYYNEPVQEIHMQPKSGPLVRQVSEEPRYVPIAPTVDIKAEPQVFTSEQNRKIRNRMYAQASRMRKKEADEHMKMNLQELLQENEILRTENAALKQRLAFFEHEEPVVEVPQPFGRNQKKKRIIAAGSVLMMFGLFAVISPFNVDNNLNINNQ

[10] = target: T8, nhr-46 (C45E5.6) (Caenorhabditis elegans) (UniProt Q95QR2)
T8 sequence: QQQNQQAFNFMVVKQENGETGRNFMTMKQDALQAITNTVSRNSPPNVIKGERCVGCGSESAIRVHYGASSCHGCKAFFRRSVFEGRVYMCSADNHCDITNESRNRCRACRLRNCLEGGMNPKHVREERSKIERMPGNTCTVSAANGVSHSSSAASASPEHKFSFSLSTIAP

Chain of nhr-34 (F58G6.5) (Caenorhabditis elegans) (Q21006 99-268): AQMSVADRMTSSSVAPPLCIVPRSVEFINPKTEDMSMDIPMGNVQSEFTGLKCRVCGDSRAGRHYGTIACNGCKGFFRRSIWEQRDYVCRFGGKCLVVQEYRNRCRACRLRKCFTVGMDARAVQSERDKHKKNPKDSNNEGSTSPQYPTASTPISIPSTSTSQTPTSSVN
Chain of atf-7 (C07G2.2) (Caenorhabditis elegans) (Q86MD3 339-508): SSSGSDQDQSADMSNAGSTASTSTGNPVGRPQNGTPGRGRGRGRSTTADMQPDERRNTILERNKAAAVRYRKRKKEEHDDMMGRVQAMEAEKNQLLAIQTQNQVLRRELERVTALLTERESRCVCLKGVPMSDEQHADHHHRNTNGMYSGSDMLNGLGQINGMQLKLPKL

Work on “AAACTACA (double strand) [8-mer AAACTACA]” yielded a binding signal (PBM E-score (-0.5 to 0.5)) [1] of 0.484.

“AACTACAC (double strand) [8-mer AACTACAC]” was tested, and the binding signal (PBM E-score (-0.5 to 0.5)) [1] was 0.486.

In the case of “AAGATCAC (double strand) [8-mer AAGATCAC]”, the binding signal (PBM E-score (-0.5 to 0.5)) [2] is reported as 0.471.

Work on “AAGATCAG (double strand) [8-mer AAGATCAG]” yielded a binding signal (PBM E-score (-0.5 to 0.5)) [2] of 0.466 and a binding signal (PBM E-score (-0.5 to 0.5)) [3] of 0.47.

With “AAGTACAT (double strand) [8-mer AAGTACAT]” the binding signal (PBM E-score (-0.5 to 0.5)) [4] was 0.495.

“AAGTGCAA (double strand) [8-mer AAGTGCAA]” gave a binding signal (PBM E-score (-0.5 to 0.5)) [4] of 0.496.

“AAGTGCAG (double strand) [8-mer AAGTGCAG]” was tested, and the binding signal (PBM E-score (-0.5 to 0.5)) [4] was 0.492.

“AAGTGCAT (double strand) [8-mer AAGTGCAT]” gave a binding signal (PBM E-score (-0.5 to 0.5)) [4] of 0.495.

With “AATGACGT (double strand) [8-mer AATGACGT]” the binding signal (PBM E-score (-0.5 to 0.5)) [5] was 0.459 and the binding signal (PBM E-score (-0.5 to 0.5)) [6] was 0.497.

Work on “AATGATCA (double strand) [8-mer AATGATCA]” yielded a binding signal (PBM E-score (-0.5 to 0.5)) [7] of 0.493.

With “AATTGATC (double strand) [8-mer AATTGATC]” the binding signal (PBM E-score (-0.5 to 0.5)) [8] was 0.477.

“AATTGGTC (double strand) [8-mer AATTGGTC]” showed a binding signal (PBM E-score (-0.5 to 0.5)) [8] of 0.484.

For “ACAGATCA (double strand) [8-mer ACAGATCA]”, the binding signal (PBM E-score (-0.5 to 0.5)) [2] was 0.456.

“ACGTCAGC (double strand) [8-mer ACGTCAGC]” gave a binding signal (PBM E-score (-0.5 to 0.5)) [9] of 0.469 and a binding signal (PBM E-score (-0.5 to 0.5)) [5] of 0.491.

With “ACTGATCA (double strand) [8-mer ACTGATCA]” the binding signal (PBM E-score (-0.5 to 0.5)) [8] was 0.477 and the binding signal (PBM E-score (-0.5 to 0.5)) [7] was 0.478.

For “AGACCAAT (double strand) [8-mer AGACCAAT]”, the binding signal (PBM E-score (-0.5 to 0.5)) [8] was 0.486.

“AGAGATCA (double strand) [8-mer AGAGATCA]” gave a binding signal (PBM E-score (-0.5 to 0.5)) [2] of 0.462, a binding signal (PBM E-score (-0.5 to 0.5)) [3] of 0.488 and a binding signal (PBM E-score (-0.5 to 0.5)) [10] of 0.478. For the same sequence, the binding signal (PBM E-score (-0.5 to 0.5)) [7] was 0.474.

“AGATCAAC (double strand) [8-mer AGATCAAC]” showed a binding signal (PBM E-score (-0.5 to 0.5)) [2] of 0.467, a binding signal (PBM E-score (-0.5 to 0.5)) [3] of 0.478 and a binding signal (PBM E-score (-0.5 to 0.5)) [10] of 0.483.

In the case of “AGATCAAT (double strand) [8-mer AGATCAAT]”, the binding signal (PBM E-score (-0.5 to 0.5)) [2] is reported as 0.473, the binding signal (PBM E-score (-0.5 to 0.5)) [3] is reported as 0.486 and the binding signal (PBM E-score (-0.5 to 0.5)) [10] is reported as 0.49.

For “AGCGATCA (double strand) [8-mer AGCGATCA]”, the binding signal (PBM E-score (-0.5 to 0.5)) [7] was 0.476.

In the case of “AGGGATCA (double strand) [8-mer AGGGATCA]”, the binding signal (PBM E-score (-0.5 to 0.5)) [7] is reported as 0.479.

In the case of “AGGTCAAC (double strand) [8-mer AGGTCAAC]”, the binding signal (PBM E-score (-0.5 to 0.5)) [2] is reported as 0.465.

With “AGTGATCA (double strand) [8-mer AGTGATCA]” the binding signal (PBM E-score (-0.5 to 0.5)) [7] was 0.495.

“ATAGATCA (double strand) [8-mer ATAGATCA]” gave a binding signal (PBM E-score (-0.5 to 0.5)) [2] of 0.466.

With “ATGATCAC (double strand) [8-mer ATGATCAC]” the binding signal (PBM E-score (-0.5 to 0.5)) [7] was 0.486.

“ATGATCAT (double strand) [8-mer ATGATCAT]” showed a binding signal (PBM E-score (-0.5 to 0.5)) [7] of 0.476.

Sequence “ATTGATCA (double strand) [8-mer ATTGATCA]” has a binding signal (PBM E-score (-0.5 to 0.5)) [8] of 0.489 and a binding signal (PBM E-score (-0.5 to 0.5)) [7] of 0.479.

For “CAAGATCA (double strand) [8-mer CAAGATCA]”, the binding signal (PBM E-score (-0.5 to 0.5)) [3] was 0.474 and the binding signal (PBM E-score (-0.5 to 0.5)) [10] was 0.463.

Work on “CAAGTGCA (double strand) [8-mer CAAGTGCA]” yielded a binding signal (PBM E-score (-0.5 to 0.5)) [4] of 0.493.
